This series deals with lysozyme (chicken (hen egg white), UniProt P00698 19-147). Put plainly: visible aggregation assay (photograph texture); 3 ul of 25 nM aptamer + 10 ul of lysozyme; indirect read-out, lysozyme alone gave no aggregate; lysozyme in ultrapure water, no buffer or salt stated; 25 nM aptamer (3 ul) heated at 70 C for 3 min before use; 20 C, 70-90% relative humidity, about 1 min on. The following applies: protein: commercial; 3' hairpin (predicted only).
lysozyme, sequence (P00698 19-147): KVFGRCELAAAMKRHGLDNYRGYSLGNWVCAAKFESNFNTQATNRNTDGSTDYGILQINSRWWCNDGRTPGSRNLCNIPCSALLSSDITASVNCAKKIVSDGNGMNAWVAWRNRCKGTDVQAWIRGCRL

As to ATCTACGAATTCATCAGGGCTAAAGAGTGCAGAGTTACTTAG (ssDNA) [anti-Lys aptamer (Ellington)], the binding result is listed as “binds”.

(Values after publication PMC7939288, “An apta-aggregation based machine learning assay for rapid quantification of lysozyme through texture parameters”.)
